Experimental data reported in PMC5095703 (Biochemistry, 2016).

How the values were obtained:
FdhC-C-term tag = FdhC-C-term tag (Acinetobacter nosocomialis, UniProt V5RDR9); test: X-ray crystal structure, […] Å; assay type: binding; conditions: ternary complex with dTDP-Fuc3N(R3Hb) (also with dTDP-Qui3N(R3Hb)), pH 5.0
[1] = system: CC(=O)SCCNC(=O)CCNC(=O)[C@H](O)C(C)(C)COP(=O)(O)OP(=O)(O)OC[C@H]1O[C@@H](n2cnc3c(N)ncnc32)[C@H](O)[C@@H]1OP(=O)(O)O; test: purified protein; conditions: 5 mM dTDP-Fuc3N, 50 mM HEPES pH 7.5, 5 mM DTNB
[2] = system: Cc1cn([C@H]2C[C@H](O)[C@@H](COP(=O)(O)OP(=O)(O)O[C@H]3O[C@H](C)[C@@H](O)[C@H](N)[C@H]3O)O2)c(=O)[nH]c1=O; test: purified protein; conditions: 1 mM 3-hydroxybutanoyl-CoA, 50 mM HEPES pH 7.5, 5 mM DTNB
[3] = system: Cc1cn([C@H]2C[C@H](O)[C@@H](COP(=O)(O)OP(=O)(O)O[C@H]3O[C@H](C)[C@H](O)[C@H](N)[C@H]3O)O2)c(=O)[nH]c1=O; test: purified protein; conditions: 1 mM 3-hydroxybutanoyl-CoA, 50 mM HEPES pH 7.5, 5 mM DTNB

| Compound | X-ray crystal structure, 1.8 Å (FdhC-C-term tag) | Km [1] [µM] | kcat [1] [s⁻¹] | kcat/Km [1] [M⁻¹ s⁻¹] | Km [2] [µM] | kcat [2] [s⁻¹] | kcat/Km [2] [M⁻¹ s⁻¹] | Km [3] [µM] | kcat [3] [s⁻¹] | kcat/Km [3] [M⁻¹ s⁻¹] |
| --- | --- | --- | --- | --- | --- | --- | --- | --- | --- | --- |
| CC(C)(COP(=O)(O)OP(=O)(O)OC[C@H]1O[C@@H](n2cnc3c(N)ncnc32)[C@H](O)[C@@H]1OP(=O)(O)O)[C@@H](O)C(=O)NCCC(=O)NCCS [CoA] | the observed electron density for the CoA and the dTDP-Fuc3N(R3Hb) ligands |  |  |  |  |  |  |  |  |  |
| FdhC (Acinetobacter nosocomialis) |  | 40 ± 10 | 0.0034 ± 0.0002 | 85 | 5300 ± 800 | 24.7 ± 1.7 | 4700 | 650 ± 70 | 52.7 ± 2.1 | 81000 |
| FdhC-C-term tag (Acinetobacter nosocomialis) |  |  |  |  |  |  |  | 1500 ± 200 | 38.3 ± 1.9 | 26000 |
